According to patent US20260049138A1 (Chugai, published 2026):

Target: T1, CD3ε homodimer protein (human, UniProt P07766 23-126, limits assumed, sulfo-tag or biotin label in the ECL assays; amine-coupled to the chip in SPR)
T1 construct: also called human CD3ε homodimer protein; CD3 (CD3ε)
Experiment: SPR Biacore T200; CD3ε homodimer on CM4 chip;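 further: Single-residue variant antibodies injected as analyte over CD3ε homodimer immobilized by amine coupling, run at 25 °C in HBS-EP+ buffer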

T1 sequence (P07766 23-126 limits assumed): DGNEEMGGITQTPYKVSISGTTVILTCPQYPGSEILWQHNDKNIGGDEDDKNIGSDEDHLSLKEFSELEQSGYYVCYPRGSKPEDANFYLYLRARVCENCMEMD

B1: CE115HA000 G98Y one-arm antibody (antibody, human IgG1, kappa, L234A L235A, N297A, name in Kabat numbering)
heavy: QVQLVESGGGVVQPGRSLRLSCAASGFTFSNAWMHWVRQAPGKGLEWVAQIKAKSNNYATYYAESVKGRFTISRDDSKNSLYLQMNSLKTEDTAVYYCRYVHYYAYYGVDAWGQGTTVTVSSASTKGPSVFPLAPSSKSTSGGTAALGCLVKDYFPEPVTVSWNSGALTSGVHTFPAVLQSSGLYSLSSVVTVPSSSLGTQTYICNVNHKPSNTKVDKKVEPKSCDKTHTCPPCPAPEAAGGPSVFLFPPKPKDTLMISRTPEVTCVVVDVSHEDPEVKFNWYVDGVEVHNAKTKPREEQYASTYRVVSVLTVLHQDWLNGKEYKCKVSNKALPAPIEKTISKAKGQPREPQVYTLPPSRCELTKNQVSLSCAVKGFYPSDIAVEWESNGQPENNYKTTPPVLDSDGSFFLVSKLTVDKSRWQQGNVFSCSVMHEALHNHYTQKSLSLSPDYKDDDDK
chain: EPKSSDKTHTCPPCPAPELLGGPSVFLFPPKPKDTLMISRTPEVTCVVVDVSHEDPEVKFNWYVDGVEVHNAKTKPREEQYNSTYRVVSVLTVLHQDWLNGKEYKCKVSNKALPAPIEKTISKAKGQPREPQVCTLPPSRDELTKNQVSLWCLVKGFYPSDIAVEWESNGQPENNYKTTPPVLDSDGSFFLYSKLTVDKSRWQQGNVFSCSVMHEALHNRYTQKSLSLSP
light: DIVMTQSPLSLPVTPGEPASISCRSSQSLVHSNRNTYLHWYQQKPGQAPRLLIYKVSNRFSGVPDRFSGSGSGTDFTLKISRVEAEDVGVYYCGQGTQVPYTFGQGTKLEIKRTVAAPSVFIFPPSDEQLKSGTASVVCLLNNFYPREAKVQWKVDNALQSGNSQESVTEQDSKDSTYSLSSTLTLSKADYEKHKVYACEVTHQGLSSPVTKSFNRGEC
- ratio of amounts bound Z=Y/X (altered form / CE115HA000): 2.22

B2: CE115HA000 G100bF one-arm antibody (antibody, human IgG1, kappa, L234A L235A, N297A, name in Kabat numbering)
heavy: QVQLVESGGGVVQPGRSLRLSCAASGFTFSNAWMHWVRQAPGKGLEWVAQIKAKSNNYATYYAESVKGRFTISRDDSKNSLYLQMNSLKTEDTAVYYCRYVHYGAYYFVDAWGQGTTVTVSSASTKGPSVFPLAPSSKSTSGGTAALGCLVKDYFPEPVTVSWNSGALTSGVHTFPAVLQSSGLYSLSSVVTVPSSSLGTQTYICNVNHKPSNTKVDKKVEPKSCDKTHTCPPCPAPEAAGGPSVFLFPPKPKDTLMISRTPEVTCVVVDVSHEDPEVKFNWYVDGVEVHNAKTKPREEQYASTYRVVSVLTVLHQDWLNGKEYKCKVSNKALPAPIEKTISKAKGQPREPQVYTLPPSRCELTKNQVSLSCAVKGFYPSDIAVEWESNGQPENNYKTTPPVLDSDGSFFLVSKLTVDKSRWQQGNVFSCSVMHEALHNHYTQKSLSLSPDYKDDDDK
chain: EPKSSDKTHTCPPCPAPELLGGPSVFLFPPKPKDTLMISRTPEVTCVVVDVSHEDPEVKFNWYVDGVEVHNAKTKPREEQYNSTYRVVSVLTVLHQDWLNGKEYKCKVSNKALPAPIEKTISKAKGQPREPQVCTLPPSRDELTKNQVSLWCLVKGFYPSDIAVEWESNGQPENNYKTTPPVLDSDGSFFLYSKLTVDKSRWQQGNVFSCSVMHEALHNRYTQKSLSLSP
light: DIVMTQSPLSLPVTPGEPASISCRSSQSLVHSNRNTYLHWYQQKPGQAPRLLIYKVSNRFSGVPDRFSGSGSGTDFTLKISRVEAEDVGVYYCGQGTQVPYTFGQGTKLEIKRTVAAPSVFIFPPSDEQLKSGTASVVCLLNNFYPREAKVQWKVDNALQSGNSQESVTEQDSKDSTYSLSSTLTLSKADYEKHKVYACEVTHQGLSSPVTKSFNRGEC
- ratio of amounts bound Z=Y/X (altered form / CE115HA000): 0.3

B3: CE115HA000 G100bD one-arm antibody (antibody, human IgG1, kappa, L234A L235A, N297A, name in Kabat numbering)
heavy: QVQLVESGGGVVQPGRSLRLSCAASGFTFSNAWMHWVRQAPGKGLEWVAQIKAKSNNYATYYAESVKGRFTISRDDSKNSLYLQMNSLKTEDTAVYYCRYVHYGAYYDVDAWGQGTTVTVSSASTKGPSVFPLAPSSKSTSGGTAALGCLVKDYFPEPVTVSWNSGALTSGVHTFPAVLQSSGLYSLSSVVTVPSSSLGTQTYICNVNHKPSNTKVDKKVEPKSCDKTHTCPPCPAPEAAGGPSVFLFPPKPKDTLMISRTPEVTCVVVDVSHEDPEVKFNWYVDGVEVHNAKTKPREEQYASTYRVVSVLTVLHQDWLNGKEYKCKVSNKALPAPIEKTISKAKGQPREPQVYTLPPSRCELTKNQVSLSCAVKGFYPSDIAVEWESNGQPENNYKTTPPVLDSDGSFFLVSKLTVDKSRWQQGNVFSCSVMHEALHNHYTQKSLSLSPDYKDDDDK
chain: EPKSSDKTHTCPPCPAPELLGGPSVFLFPPKPKDTLMISRTPEVTCVVVDVSHEDPEVKFNWYVDGVEVHNAKTKPREEQYNSTYRVVSVLTVLHQDWLNGKEYKCKVSNKALPAPIEKTISKAKGQPREPQVCTLPPSRDELTKNQVSLWCLVKGFYPSDIAVEWESNGQPENNYKTTPPVLDSDGSFFLYSKLTVDKSRWQQGNVFSCSVMHEALHNRYTQKSLSLSP
light: DIVMTQSPLSLPVTPGEPASISCRSSQSLVHSNRNTYLHWYQQKPGQAPRLLIYKVSNRFSGVPDRFSGSGSGTDFTLKISRVEAEDVGVYYCGQGTQVPYTFGQGTKLEIKRTVAAPSVFIFPPSDEQLKSGTASVVCLLNNFYPREAKVQWKVDNALQSGNSQESVTEQDSKDSTYSLSSTLTLSKADYEKHKVYACEVTHQGLSSPVTKSFNRGEC
- ratio of amounts bound Z=Y/X (altered form / CE115HA000): 0.27

B4: CE115HA000 G100bE one-arm antibody (antibody, human IgG1, kappa, L234A L235A, N297A, name in Kabat numbering)
heavy: QVQLVESGGGVVQPGRSLRLSCAASGFTFSNAWMHWVRQAPGKGLEWVAQIKAKSNNYATYYAESVKGRFTISRDDSKNSLYLQMNSLKTEDTAVYYCRYVHYGAYYEVDAWGQGTTVTVSSASTKGPSVFPLAPSSKSTSGGTAALGCLVKDYFPEPVTVSWNSGALTSGVHTFPAVLQSSGLYSLSSVVTVPSSSLGTQTYICNVNHKPSNTKVDKKVEPKSCDKTHTCPPCPAPEAAGGPSVFLFPPKPKDTLMISRTPEVTCVVVDVSHEDPEVKFNWYVDGVEVHNAKTKPREEQYASTYRVVSVLTVLHQDWLNGKEYKCKVSNKALPAPIEKTISKAKGQPREPQVYTLPPSRCELTKNQVSLSCAVKGFYPSDIAVEWESNGQPENNYKTTPPVLDSDGSFFLVSKLTVDKSRWQQGNVFSCSVMHEALHNHYTQKSLSLSPDYKDDDDK
chain: EPKSSDKTHTCPPCPAPELLGGPSVFLFPPKPKDTLMISRTPEVTCVVVDVSHEDPEVKFNWYVDGVEVHNAKTKPREEQYNSTYRVVSVLTVLHQDWLNGKEYKCKVSNKALPAPIEKTISKAKGQPREPQVCTLPPSRDELTKNQVSLWCLVKGFYPSDIAVEWESNGQPENNYKTTPPVLDSDGSFFLYSKLTVDKSRWQQGNVFSCSVMHEALHNRYTQKSLSLSP
light: DIVMTQSPLSLPVTPGEPASISCRSSQSLVHSNRNTYLHWYQQKPGQAPRLLIYKVSNRFSGVPDRFSGSGSGTDFTLKISRVEAEDVGVYYCGQGTQVPYTFGQGTKLEIKRTVAAPSVFIFPPSDEQLKSGTASVVCLLNNFYPREAKVQWKVDNALQSGNSQESVTEQDSKDSTYSLSSTLTLSKADYEKHKVYACEVTHQGLSSPVTKSFNRGEC
- ratio of amounts bound Z=Y/X (altered form / CE115HA000): 0.26
